Experimental data as given in US20120108492A1 (REGENTS OF THE UNIVERSITY OF COLORADO, published 2012).

Target: wild-type recombinant EBV gp350 (residues 1-470 of EBV gp350/220, BCCP, myc, hexa-histidine) (Epstein-Barr virus (B95-8); Escherichia …, UniProt P03200 1-470; P0ABD8 70-156)
Experiment: ELISA, wild-type gp350 on plate, MBP-CR2 SCR1-2 mutant in solution

Chain of wild-type recombinant EBV gp350 (residues 1-470 of EBV gp350/220, BCCP, myc, hexa-histidine) (P03200 1-470, tags or fused parts left off): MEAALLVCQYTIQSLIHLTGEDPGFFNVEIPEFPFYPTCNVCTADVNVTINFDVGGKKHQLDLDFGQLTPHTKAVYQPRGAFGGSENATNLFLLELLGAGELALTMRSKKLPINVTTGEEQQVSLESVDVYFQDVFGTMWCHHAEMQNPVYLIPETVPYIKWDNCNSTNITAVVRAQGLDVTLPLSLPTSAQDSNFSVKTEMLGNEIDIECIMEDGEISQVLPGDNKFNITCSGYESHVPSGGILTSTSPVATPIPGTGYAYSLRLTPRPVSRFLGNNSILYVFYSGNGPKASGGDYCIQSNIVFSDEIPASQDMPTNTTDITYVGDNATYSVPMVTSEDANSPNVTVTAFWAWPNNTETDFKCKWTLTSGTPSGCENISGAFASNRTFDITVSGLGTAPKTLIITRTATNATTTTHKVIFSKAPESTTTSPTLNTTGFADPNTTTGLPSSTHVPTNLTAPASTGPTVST

B1: MBP-CR2 SCR1-2 K67A (receptor)
chain: ISCGSPPPILNGRISYYSTPIAVGTVIRYSCSGTFRLIGEKSLLCITKDKVDGTWDKPAPKCEYFNAYSSCPEPIVPGGYKIRGSTPYRHGDSVTFACKTNFSMNGNKSVWCQANNMWGPTRLPTCVSVFPLE
notes: not shown: MBP tag encoded by pMAL-p2x and the vector linker between MBP and CR2
decrease in EBV gp350 binding relative to wild-type: ~20%
